Assay: label from the status in PepcDB records
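Note: failed if final PepcDB status was selected cloned or expressed and not failed if soluble or beyond.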

MLKERLKAFFSADSVFTLIFALFFLTSFKKPLTQVLLIVLMVFLFFRCYFQASLKETFAINHLKTMSFKWLTLAFLGVFLSIFPNMFNMHDSQTFRYNLFALNMSLTYACGALCLLFASCLRIKLNQKILFYSMAVANFINGLLSLVQKIYFNMPRAQGFSTVKEYVVLVSVSILGCYIYALYSHNQKEKLFFTLSVFVGFLVVILSATRSATIAFVITFLILSCFILYAKKSLKPLGYMVVVSLILSALYVGSNALEKKGAIEQSRVQNQSFEEDLKRYAKKDADSSIGWRLERWKEALTVLRLRPFFGMAASEKCQRLEEILSLSKSYRAKDLILCYERYDNQIIHILATRGIIGFLIWLFFLLVIVKIFWSGIKQNSLISFFILMTLAFYLIFGIGFDPFDFFITGSFFVGMIMMAVFLKKDKSAF
protein production: failed

MLKFNKVFMYITASALSVSLWTCTSFAQQNKTGVTTASMLNMRENPSTSTKIIDQIPNGTKVDIIETSNGWYKISYNGKTGWVYGSYVKVTETPKLTVTDETILATLNKGSTGNSSTNSSTNNSAVNNSSSQVVDETIQKPAQNAASGENTENTVVKTGIVKASALNVRQGPGTSYSIINQLSNGAKVNIIKEESGWYQIKLANGSTGWVSGTYVNVNTTIASRGGLSENSAPAASNNSDVSGVRQQVVEYAKKFLGVKYVYGGNSPSQGFDCSGFVKYVFSNFGINLERVAASQAKQGTWVSKDQLLPGDLVFFDTDGGHNYINHSGIYIGDGKFIHASSGSGKKSVVISDLTSGFYANTYMTARRVLN
protein production: failed

MLKGKVALVTGASRGIGRAIAKRLANDGALVAIHYGNRKEEAEETVYEIQSNGGSAFSIGANLESLHGVEALYSSLDNELQNRTGSTKFDILINNAGIGPGAFIEETTEQFFDRMVSVNAKAPFFIIQQALSRLRDNSRIINISSAATRISLPDFIAYSMTKGAINTMTFTLAKQLGARGITVNAILPGFVKTDMNAELLSDPMMKQYATTISAFNRLGEVEDIADTAAFLASPDSRWVTGQLIDVSGGSCL
protein production: not failed

MLKGKYTKIEKVNGVEREYLITDKYGITIGRIFIVDLNKDNRFCMFRMKIYKQGKSINTYIKEILSVFMEFLFKSNDINKVNIIVDEEVSTQPFVELGFAFEGIINKSIIEKNVLKDEFLFGMDYKNYNSDRINVFKLYGKSITLKVLTPEDAENMLQYYIKNKEHLKPFEPEREESFYTFEAQKQMLIENYKQFINGEGTNFGIYKDAKLIGKIQISGTIYGVFKSAIIGYSIDKDYQGKGYMKDALRVAEAYAFNVMNLHRIEASALVDNLRSQNVLIGCGFEKLGINKNYLFINGRWQDHITFYKTNNN
protein production: failed

MLKGPLKGCLNMSKKVIVIAGTTGVGKSQLSIQLAQKFNGEVINSDSMQVYKDIPIITNKHPLQEREGIPHHVMNHVDWSEEYYSHRFETECMNAIEDIHRRGKIPIVVGGTHYYLQTLFNKRVDTKSSERKLTRKQLDILESTDPDVIYNTLVKCDPDIATKYHPNDYRRVQRMLEIYYKTGKKPSETFNEQKITLKFDTLFLWLYSKPEPLFQRLDDRVDDMLERGALQEIKQLYEYYSQNKFTPEQCENGVWQVIGFKEFLPWLTGKTDDNTVKLEDCIERMKTRTRQYAKRQVKWIKKMLIPDIKGDIYLLDATDLSQWDTNASQRAIAISNDFISNRPIKQERAPKALEELLSKGETTMKKLDDWTHYTCNVCRNADGKNVVAIGEKYWKIHLGSRRHKSNLKRNTRQADFEKWKINKKETVE
protein production: failed

MLKHLDRSKKGKVARSFLQAISKDEAVAPPLRVVQIEGLAVLKIIKHCKEFSPTLVTGQLLGLDVGSVLEVTNCFPFPVRDDDEEIEADGANYQLEMMRCLREVNVDNNTVGWYQSTVLGSYQTVELIETFMNYQENIKRCVCIIYDPSKADLGVLALKALKLSDSFMELYRGGNFTGEKLREKNFSWMDIFEEIPIKVSNSALVSAFMTELETDTPVSQGDYDRLHSSTTPFLENNMEFLIKCMDDLSMEQQKFQYYYRNLSRQQAQQQAWLQKRRTENMARKSAGEEPLPEEDPSNPIFKAIPEPSRLESFLITNQVSNFCGQINGVAGQNFSRLYLTKALHDN
protein production: failed

MLKIFSTQLSGYFSRVSQKEEMNIEDSARLLAQALVGEGFIYLHGTNEMEGVVAEALFGAEPMKQAKRLFENGKEVEVTSADRVLLISRFSTDEEVVAIAKKLQADGHSIVGISAIQEGNESLEQYTDVHIDTKLLKGLIPDDEGNRYGFPSLMIALFAYHGIKFTIDEMLNEY
protein production: not failed

MLKILKRIVQDVTAASDLKEALGILVQRINTAINAEAVSVYLIDNKNAEYVLIATEGLNKQAEFRVRIALDCGLIGLIGRREEPINIENAPSHPDFYHNPLIGEDHLNAFLGVPIIQHRKLYGVLVVQQLEQRYFDDAEESFLITLAAQLGGIIAHAEATGELAELTQ
protein production: failed

MLKKEYLKNPYLVLFAMIILAYVFSVLCRFYWIWWASEFNEYFFNNQLMIISNDGYAFAEGARDMIAGFHQPNDLSYYGSSLSTLTYWLYKITPFSFESIILYMSTFLSSLVVIPIILLANEYKRPLMGFVAALLASVANSYYNRTMSGYYDTDMLVIVLPMFILFFMVRMILKKDFFSLIALPLFIGIYLWWYPSSYTLNVALIGLFLIYTLIFHRKEKIFYIAVILSSLTLSNIAWFYQSAIIVILFALFALEQKRLNFMIIGILGSATLIFLILSGGVDPILYQLKFYIFRNDESANLTQGFMYFNVNQTIQEVENVDFSEFMRRISGSEIVFLFSLFGFVWLLRKHKSMIMALPILVLGFLALKGGLRFTIYSVPVMALGFGFLLSEFKAILVKKYSQLTSNVCIVFATILTLAPVFIHIYNYKAPTVFSQNEASLLNQLKNIANREDYVVTWWDYGYPVRYYSDVKTLVDGGKHLGKDNFFPSFALSKDEQAAANMARLSVEYTEKSFYAPQNDILKSDILQAMMKDYNQSNVDLFLASLSKPDFKIDTPKTRDIYLYMPARMSLIFSTVASFSFINLDTGVLDKPFTFSTAYPLDVKNGEIYLSNGVVLSDDFRSFKIGDNVVSVNSIVEINSIKQGEYKITPIDDKAQFYIFYLKDSAIPYAQFILMDKTMFNSAYVQMFFLGNYDKNLFDLVINSRDAKVFKLKI
protein production: failed

MLKKIDDSESLLDTAALAPLQRFVERECRLLDEQRFEEWLALYLPEATYWAPATRDNPDPDSQVSLFWDDKETMQTRVQRLLHPEIHSQIPASVTVRLTSNFRAAVAPGGEKDAYQVECRFIMVEDRLGSPRQQFAGTFNYLLVQNGAAFRIRQKRVDLTNCDHAFHTLTQPF
protein production: not failed

MLKSKIKEEYVQMDQVDWKPFPAAFSTGGIRWKLLHVSPEMGSWTAIFDCPAGSSFAAHVHVGPGEYFLTKGKMDVRGGKAAGGDTAIAPGYGYESANARHDKTEFPVASEFYMSFLGPLTFVKPDGSPIAVIGWEDAQGAWAA
protein production: not failed

MLKTTISPIFSSFTGKPKCSSKLFFRAFSKVVLQDTPPSARRNASTNLTTLHKGPPTSAYVHLPFCRKRCHYCDFPILALGMSSSSARPSNVYEEGKEDDPRITNYVNLLVREIKATRTDFDTNPNLETVFFGGGTPSLVPPKLVSLILETLSLNFGLSPDAEISMEMDPGTFDGQKLKDLMKLGVNRVSLGVQAFQDELLKACGRAHGVSQVYEAIEFVKECGVENWSMDLISSLPHQTLEMWEESLRLAIESQPNHVSVYDLQVEQGTKFGNLYTPGQSPLPSETQSAEFYKTASSMLRGAGYEHYEVSSYSRDGFKCKHNLIYWKNKPFYAFGLGSASYVGGLRFSRPRRLKEYTNYVADLENGAANWCGNGDVDLKDVATDILMLSFRTSKGLELKEFGEAFGSEVVKSICKVYEPYVESGHIVCLDDMRSEVMIDEFKTLVANDEVKIEDHVRYLRLKDPDGFLLSNELISLSFGVVAP
protein production: failed

MLLDEIKRMSYDELKRLAEDIRKRITEVVLKNGGHLASNLGTIELTLALYRVFDPREDAIIWDTGHQAYTHKILTGRDDLFHTIRTFGGLSGFVTRRESPLDWFGTGHAGTSIAAGLGFEKAFELLGEKRHVVVVIGDGALTSGMALEALNQLKNLNSKMKIILNDNGMSISPNVGGLAYHLSKLRTSPIYLKGKKVLKKVLEKTEIGFEVEEEMKYLRDSLKGMIQGTNFFESLGLKYFGPFDGHNIELLEKVFKRIRDYDYSSVVHVVTKKGKGFTAAEENPTKYHSASPSGKPKMLSYSELLGHTLSRVAREDKKIVAITAAMADGTGLSIFQKEHPDRFFDLGITEQTCVTFGAALGLHGMKPVVAIYSTFLQRAYDQIIHDVALQNAPVLFAIDRSGVVGEDGPTHHGLFDINYLLPVPNMKIISPSSPEEFVNSLYTVLKHLDGPVAIRYPKESFYGEVESLLENMKEIDLGWKILKRGREAAIIATGTILNEVLKIPLDVTVVNALTVKPLDTAVLKEIARDHDLIITVEEAMKIGGFGSFVAQRLQEMGWQGKIVNLGVEDLFVPHGGRKELLSMLGLDSEGLTKTVLTYIKARSREGKV
protein production: failed

MLLEPLKQLKQADARLNMTQGVLEGVVGEELGVLPGMDSIFSMLELERLVGFFRQATRKNHKGKPFDVIIYDGISTEETLRMIGLSSKTRLYAKYLRSLAEKTDLGRLTSPSIMRFVDESMNINSNKSPFDGMTSPAMWDTLERFLETGASAWRDPERFRSFLVMDPNNPMSVKAALRYWGCTVQAGSHVSGAFAISSSHLTSQIPKADFVPLPFASASVPFTITGLDWDKILLDQANSSIRELLSETVSHGTSLTQTVMFDTAKKLVTLFMPGFEKSEIKLYQYRGGSELLIEAGDQRRVIHLPSQIQGKVGGAKFVDRSLIVTMR
protein production: failed

MLLFWLEFIGIFIAIFVSAELLAKGADELEDFLGQGITGGIILGFLTALPETIFVIVASLEGSFDVALGSAIGGNVLLFTLGIGLVGVFYAFKWRTALQISSEYSVENVFLVLTTIGMLLVLIYGKLNIISGLLLILIYVIYVVYRVAKFRREGMEREKGNLMKPVGFIIAGGVLLVVFSHYFVEYINEIAIMFNVPAIWLSLVIAPIAGELEEKISAFRLVLMSKDGGSLSILSFVGSKIENATVLLGIIGIFTDYELQQALPEYASSLIANMIALYVLFDKRLKTFESVILIGVYVIIVILSFYL
protein production: failed

MLLFWVEFIGTFIGLFISAELIAKGADELEEVLGQGITGGILLGFITALPETIFVIIASLGGSLDVAFGSAIGGNILLFTVGAGLVGIVYFWKWKNNLVMDQEYQVENKFLIISTVALVLITLYSKLNVIAGVCLILIYVYYVIYRLRKFKRDKPIAKKEVDYVKISIFMVVGAILLIILSHYFVEQLDQISLSFGIPAVWISLVLSPIAGELEEKISAFRLITLSKKGGSLSLLSFVGSKIENNTVLLGIIGLFGDYSLRPVIPEMVSLILVNVSVLRVLFDRKLTVLESSLLIIAYAVIIIALYYL
protein production: failed

MLLGSCWRIARGVETVPYPWPKWLPIPVLATTVGVAAVVIGVRQLGLLQPSELSLYDFYVRSQPPRDPDSRILTVLVTEQDIQAQKTWPLPDATVAELLTRLNAASPRAIGLDIFRDLPQPPGHDELQNMIRINPRIIPVCKSPGETVEQPEVPPPPSIPTAQVPERVGFADIPLDSDGVIRRNLFVINNPKAQRCTTPFSFALMLALRYLEQDPSQTIKLDDKGLTLNDVHFPLLTSDAGGYVAVDDRGMQTLLKYRSRTAVGPTVSLTDVLTGRVSEDLIRDRVVLIGVSAPSIKDTFLTPYSGSDAVTQQMPGVVVHGQMVSQFLSAALEGEGPIWYWPVPLVLGWILLWAGVGSILGWWLRQPLWLGGAVVGGIIVLFGGGFGIFVMASGWIPVVPPAIALVLSSVGMVGYVSYQAQQEQKSFREKVQEQEKALALLRSLMAEDTAALNAALREPTEITGKPRSLLSGRYKIQKVLGSGGFGRTYLAQDTQRPGNPLCVVKHLRPGRTDERFMQVARRLFNTEAEILEKLGRHDQIPLLLAYVEENREFYLVQEFIDGVSLSEELKRKHTEAEAIQLLREILEVLNFVHSHYVIHRDIKPDNIIRRASDRKLVLIDFGAVKQIQPQEAERTQGSTVVIGTMGYAPPEQLSGQPTLSSDIYAVGMIVLQALTGIKPRDLPRDPRTGEVDWQQCVTVSEGLAVVLNKMVKFNFSDRYPSAKEALQDARRLGTPAASVS
protein production: failed

From a protein production outcome set (Wang et al. 2014)
